The source of these data is the supplement of paper PMC9112550, “Optimization of the antimicrobial peptide Bac7 by deep mutational scanning” (BMC Biology, 2022).

This data set has as its system Escherichia coli TOP10. Description: shrunken log2 fold change of peptide-encoding DNA abundance (4.5 h post-induction vs induction); higher = less antimicrobial activity (less host growth inhibition). The conditions noted are these: time post-induction: 4.5 h; library: site-saturation at positions 5, 18, 19, 20.
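Further: peptides expressed intracellularly from a pBAD plasmid library in pooled LB shake-flask culture, induced with 0.3% L-arabinose, DNA abundance read by NGS, three biological replicates, DESeq2 with apeglm shrinkage.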

Consider RRIRLRPPRLPRPRPRPCWEPRP, for which the “shrunken log2 fold change” value was -0.197.

On to RRIRQRPPRLPRPRPRPGHLPRP, for which the “shrunken log2 fold change” value was -0.0699.

Turning to RRIRVRPPRLPRPRPRPIEPPRP, the “shrunken log2 fold change” value was -0.065.

Regarding RRIRNRPPRLPRPRPRPQYYPRP, the “shrunken log2 fold change” value is -0.128.

Take RRIRIRPPRLPRPRPRPERSPRP: the “shrunken log2 fold change” value was -0.164.

Regarding RRIRGRPPRLPRPRPRPKVQPRP, the “shrunken log2 fold change” value stood at 1.06.

RRIRFRPPRLPRPRPRPSYTPRP: the “shrunken log2 fold change” value is -0.771.

As for RRIRNRPPRLPRPRPRPARIPRP, the “shrunken log2 fold change” value was -0.0767.

In the case of RRIRYRPPRLPRPRPRPEMRPRP, the “shrunken log2 fold change” value turned out to be 0.0856.

Take RRIRWRPPRLPRPRPRPHWIPRP: the “shrunken log2 fold change” value was -0.434.

Turning to RRIRGRPPRLPRPRPRPESPPRP, the “shrunken log2 fold change” value was determined as 1.25.

As to RRIRTRPPRLPRPRPRPGQMPRP, the “shrunken log2 fold change” value amounted to 0.0303.

Turning to RRIRYRPPRLPRPRPRPENPPRP, the “shrunken log2 fold change” value is -0.382.

With RRIRPRPPRLPRPRPRPQCPPRP, the “shrunken log2 fold change” value is -0.172.

In the case of RRIRARPPRLPRPRPRPFHSPRP, the “shrunken log2 fold change” value was -0.217.

On to RRIRQRPPRLPRPRPRPRLQPRP, for which the “shrunken log2 fold change” value worked out at 0.501.

On to RRIRLRPPRLPRPRPRPIELPRP, for which the “shrunken log2 fold change” value is 0.00435.

Turning to RRIRERPPRLPRPRPRPKWIPRP, the “shrunken log2 fold change” value is -0.54.

Take RRIRVRPPRLPRPRPRPGKIPRP: the “shrunken log2 fold change” value was -0.346.

In the case of RRIRFRPPRLPRPRPRPVLMPRP, the “shrunken log2 fold change” value is -0.13.

Regarding RRIRYRPPRLPRPRPRPAIPPRP, the “shrunken log2 fold change” value is -0.66.

Consider RRIRHRPPRLPRPRPRPGAMPRP, for which the “shrunken log2 fold change” value worked out at 0.392.

Take RRIRWRPPRLPRPRPRPVEIPRP: the “shrunken log2 fold change” value is -0.206.

For RRIRIRPPRLPRPRPRPWEVPRP, the “shrunken log2 fold change” value is -0.00884.

As to RRIRHRPPRLPRPRPRPSKPPRP, the “shrunken log2 fold change” value amounted to 0.00696.

Regarding RRIRKRPPRLPRPRPRPCKNPRP, the “shrunken log2 fold change” value was -0.0355.

Regarding RRIRYRPPRLPRPRPRPCGAPRP, the “shrunken log2 fold change” value was -0.324.

Take RRIRVRPPRLPRPRPRPGPLPRP: the “shrunken log2 fold change” value was 0.0392.

As to RRIRYRPPRLPRPRPRPTYHPRP, the “shrunken log2 fold change” value was -0.663.

In the case of RRIRKRPPRLPRPRPRPFINPRP, the “shrunken log2 fold change” value is -0.148.

In the case of RRIRERPPRLPRPRPRPLVAPRP, the “shrunken log2 fold change” value came to 0.0966.

Consider RRIRCRPPRLPRPRPRPQFNPRP, for which the “shrunken log2 fold change” value was -0.98.

As for RRIRGRPPRLPRPRPRPNRIPRP, the “shrunken log2 fold change” value stood at 0.281.

For RRIRYRPPRLPRPRPRPPMYPRP, the “shrunken log2 fold change” value was -1.28.

In the case of RRIRCRPPRLPRPRPRPIKHPRP, the “shrunken log2 fold change” value is -0.389.

As for RRIRVRPPRLPRPRPRPSSCPRP, the “shrunken log2 fold change” value was -0.184.

Consider RRIRDRPPRLPRPRPRPLQGPRP, for which the “shrunken log2 fold change” value turned out to be 0.287.

For RRIRARPPRLPRPRPRPLAVPRP, the “shrunken log2 fold change” value was 0.716.

On to RRIRSRPPRLPRPRPRPECIPRP, for which the “shrunken log2 fold change” value came to 0.00247.

For RRIRPRPPRLPRPRPRPVWQPRP, the “shrunken log2 fold change” value turned out to be 0.23.

In the case of RRIRLRPPRLPRPRPRPLRDPRP, the “shrunken log2 fold change” value was 0.356.

As to RRIRVRPPRLPRPRPRPYGKPRP, the “shrunken log2 fold change” value is -0.289.

As to RRIRERPPRLPRPRPRPCDIPRP, the “shrunken log2 fold change” value was -0.329.

With RRIRSRPPRLPRPRPRPDPMPRP, the “shrunken log2 fold change” value was -0.0673.

RRIRLRPPRLPRPRPRPSFCPRP: the “shrunken log2 fold change” value was -0.403.

As to RRIRCRPPRLPRPRPRPWWIPRP, the “shrunken log2 fold change” value is -0.655.

Turning to RRIRKRPPRLPRPRPRPKAEPRP, the “shrunken log2 fold change” value turned out to be 0.669.

On to RRIRARPPRLPRPRPRPILKPRP, for which the “shrunken log2 fold change” value was 0.221.

Turning to RRIRQRPPRLPRPRPRPPTSPRP, the “shrunken log2 fold change” value is -0.00728.

As for RRIRLRPPRLPRPRPRPWEPPRP, the “shrunken log2 fold change” value came to 0.0843.

With RRIRARPPRLPRPRPRPMKIPRP, the “shrunken log2 fold change” value turned out to be 0.275.

Turning to RRIRTRPPRLPRPRPRPTWEPRP, the “shrunken log2 fold change” value is 0.95.

Regarding RRIRKRPPRLPRPRPRPLLTPRP, the “shrunken log2 fold change” value was 0.652.

For the sequence RRIRIRPPRLPRPRPRPDREPRP, the “shrunken log2 fold change” value was 0.00825.

For the sequence RRIRFRPPRLPRPRPRPMCYPRP, the “shrunken log2 fold change” value was -0.416.

In the case of RRIRIRPPRLPRPRPRPRDLPRP, the “shrunken log2 fold change” value was 0.067.

For the sequence RRIRLRPPRLPRPRPRPSFMPRP, the “shrunken log2 fold change” value is -0.309.

Consider RRIRYRPPRLPRPRPRPFQDPRP, for which the “shrunken log2 fold change” value is -0.139.

Take RRIRERPPRLPRPRPRPFTQPRP: the “shrunken log2 fold change” value was -0.299.

As to RRIRARPPRLPRPRPRPWQDPRP, the “shrunken log2 fold change” value came out at 0.0326.

On to RRIRIRPPRLPRPRPRPYRAPRP, for which the “shrunken log2 fold change” value is -0.77.

For the sequence RRIRLRPPRLPRPRPRPYSSPRP, the “shrunken log2 fold change” value was -0.203.

RRIRYRPPRLPRPRPRPHELPRP: the “shrunken log2 fold change” value was -0.00663.

For RRIRYRPPRLPRPRPRPGNCPRP, the “shrunken log2 fold change” value was -0.152.

As to RRIRVRPPRLPRPRPRPFHHPRP, the “shrunken log2 fold change” value is -0.182.

RRIRGRPPRLPRPRPRPVDFPRP: the “shrunken log2 fold change” value stood at 0.408.

RRIRVRPPRLPRPRPRPALRPRP: the “shrunken log2 fold change” value stood at 0.306.

With RRIRTRPPRLPRPRPRPCAIPRP, the “shrunken log2 fold change” value was 0.00368.

Take RRIRIRPPRLPRPRPRPTTAPRP: the “shrunken log2 fold change” value is -0.00422.

Regarding RRIRIRPPRLPRPRPRPYNDPRP, the “shrunken log2 fold change” value is -0.313.

For the sequence RRIRVRPPRLPRPRPRPVAHPRP, the “shrunken log2 fold change” value stood at 0.0271.

With RRIRIRPPRLPRPRPRPNWQPRP, the “shrunken log2 fold change” value is -0.0358.

On to RRIRDRPPRLPRPRPRPIISPRP, for which the “shrunken log2 fold change” value came out at 0.0102.

Take RRIRFRPPRLPRPRPRPYDDPRP: the “shrunken log2 fold change” value was -0.0579.

On to RRIRLRPPRLPRPRPRPQGWPRP, for which the “shrunken log2 fold change” value came to 0.495.

Regarding RRIRLRPPRLPRPRPRPNFWPRP, the “shrunken log2 fold change” value was determined as 0.199.

With RRIRIRPPRLPRPRPRPICSPRP, the “shrunken log2 fold change” value was -0.118.

With RRIRQRPPRLPRPRPRPMMSPRP, the “shrunken log2 fold change” value was -0.0325.

In the case of RRIRIRPPRLPRPRPRPDMPPRP, the “shrunken log2 fold change” value was -0.109.

With RRIRNRPPRLPRPRPRPAQDPRP, the “shrunken log2 fold change” value was 0.288.

With RRIRIRPPRLPRPRPRPTTCPRP, the “shrunken log2 fold change” value is -0.447.

As to RRIRKRPPRLPRPRPRPLCKPRP, the “shrunken log2 fold change” value was 0.0465.

In the case of RRIRRRPPRLPRPRPRPTVEPRP, the “shrunken log2 fold change” value came to 1.39.

Take RRIRNRPPRLPRPRPRPGCFPRP: the “shrunken log2 fold change” value was found to be 0.126.

RRIRGRPPRLPRPRPRPDEMPRP: the “shrunken log2 fold change” value is -0.0376.

In the case of RRIRCRPPRLPRPRPRPRSIPRP, the “shrunken log2 fold change” value is -0.0603.

Turning to RRIRVRPPRLPRPRPRPVHSPRP, the “shrunken log2 fold change” value is 0.0275.

Take RRIRNRPPRLPRPRPRPQSNPRP: the “shrunken log2 fold change” value is -0.428.

On to RRIRERPPRLPRPRPRPECSPRP, for which the “shrunken log2 fold change” value was -0.0948.

In the case of RRIRNRPPRLPRPRPRPCVPPRP, the “shrunken log2 fold change” value is -0.00911.

Consider RRIRFRPPRLPRPRPRPGNSPRP, for which the “shrunken log2 fold change” value stood at 0.00114.

RRIRKRPPRLPRPRPRPACSPRP: the “shrunken log2 fold change” value turned out to be 0.341.

In the case of RRIRFRPPRLPRPRPRPLHDPRP, the “shrunken log2 fold change” value was -0.107.

For RRIRCRPPRLPRPRPRPMPGPRP, the “shrunken log2 fold change” value worked out at 0.0112.

In the case of RRIRTRPPRLPRPRPRPQFWPRP, the “shrunken log2 fold change” value was -0.00273.

Regarding RRIRIRPPRLPRPRPRPNYTPRP, the “shrunken log2 fold change” value was -0.516.

As for RRIRCRPPRLPRPRPRPNFGPRP, the “shrunken log2 fold change” value was -0.0314.

For the sequence RRIRGRPPRLPRPRPRPGQPPRP, the “shrunken log2 fold change” value is 0.462.

For the sequence RRIRDRPPRLPRPRPRPFCDPRP, the “shrunken log2 fold change” value was determined as 0.167.

RRIRGRPPRLPRPRPRPWEAPRP: the “shrunken log2 fold change” value is -0.0319.

With RRIRARPPRLPRPRPRPIGMPRP, the “shrunken log2 fold change” value came to 0.0267.

Take RRIRWRPPRLPRPRPRPLACPRP: the “shrunken log2 fold change” value was found to be 0.206.

Turning to RRIRPRPPRLPRPRPRPGQQPRP, the “shrunken log2 fold change” value is 0.167.

On to RRIRRRPPRLPRPRPRPVTPPRP, for which the “shrunken log2 fold change” value turned out to be 0.705.

For RRIRERPPRLPRPRPRPASKPRP, the “shrunken log2 fold change” value was -0.12.

As for RRIRRRPPRLPRPRPRPIFQPRP, the “shrunken log2 fold change” value turned out to be 0.303.

As to RRIRHRPPRLPRPRPRPWLNPRP, the “shrunken log2 fold change” value was -0.0017.

For RRIRYRPPRLPRPRPRPQSAPRP, the “shrunken log2 fold change” value was -0.21.

Consider RRIRQRPPRLPRPRPRPLVMPRP, for which the “shrunken log2 fold change” value was -0.107.

RRIRVRPPRLPRPRPRPTRQPRP: the “shrunken log2 fold change” value amounted to 0.0865.

As for RRIRMRPPRLPRPRPRPCNMPRP, the “shrunken log2 fold change” value is -0.126.

For the sequence RRIRWRPPRLPRPRPRPLALPRP, the “shrunken log2 fold change” value came out at 0.362.

In the case of RRIRERPPRLPRPRPRPYGFPRP, the “shrunken log2 fold change” value was -0.382.

Take RRIRHRPPRLPRPRPRPKWNPRP: the “shrunken log2 fold change” value was -0.206.

RRIRRRPPRLPRPRPRPGCCPRP: the “shrunken log2 fold change” value came out at 0.589.

In the case of RRIRIRPPRLPRPRPRPSAQPRP, the “shrunken log2 fold change” value was -0.0807.

With RRIRDRPPRLPRPRPRPLMLPRP, the “shrunken log2 fold change” value was determined as 0.116.

Consider RRIRIRPPRLPRPRPRPENSPRP, for which the “shrunken log2 fold change” value was determined as 0.0169.

For the sequence RRIRERPPRLPRPRPRPLTYPRP, the “shrunken log2 fold change” value was -0.188.

In the case of RRIRVRPPRLPRPRPRPKRPPRP, the “shrunken log2 fold change” value was determined as 0.32.

On to RRIRGRPPRLPRPRPRPQIYPRP, for which the “shrunken log2 fold change” value stood at 0.185.

As for RRIRVRPPRLPRPRPRPKRHPRP, the “shrunken log2 fold change” value turned out to be 0.0244.

With RRIRLRPPRLPRPRPRPEDIPRP, the “shrunken log2 fold change” value is -0.539.

As for RRIRVRPPRLPRPRPRPPAPPRP, the “shrunken log2 fold change” value amounted to 0.794.

As for RRIRGRPPRLPRPRPRPDGYPRP, the “shrunken log2 fold change” value came out at 0.222.
